The test system of series [1] is HeLa Kyoto. In words: solubility in G1/S (NP-40 vs SDS abundance) (log2 ratio); higher = more soluble. To be noted: cell cycle stage: G1/S.
Series [2] deals with HeLa Kyoto. The series is described as follows: solubility change mitosis vs G1/S (difference of NP-40 vs SDS log2 ratios) (log2 ratio difference); higher = more soluble in mitosis.
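For solubility change mitosis vs G1/S (difference of NP-40 vs SDS log2 ratios) in this document: synchronized HeLa Kyoto cells (double thymidine block for G1/S, nocodazole release for mitosis), protein amounts in NP-40 versus SDS lysates quantified by mass spectrometry, three biological replicates.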
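For solubility in G1/S (NP-40 vs SDS abundance) in this document: HeLa Kyoto cells arrested at G1/S by double thymidine block, proteins quantified by TMT10plex mass spectrometry in mild NP-40 versus SDS extracts, three biological replicates.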

Consider “MEPRRAAPGVPGWGSREAAGSASAAELVYHLAGALGTELQDLARRFGPEAAAGLVPLVVRALELLEQAAVGPAPDSLQVSAQPAEQELRRLREENERLRRELRAGPQEERALLRQLKEVTDRQRDELRAHNRDLRQRGQETEALQEQLQRLLLVNAELRHKLAAMQTQLRAAQDRERERQQPGEAATPQAKERARGQAGRPGHQHGQEPEWATAGAGAPGNPEDPAEAAQQLGRPSEAGQCRFSREEFEQILQERNELKAKVFLLKEELAYFQRELLTDHRVPGLLLEAMKVAVRKQRKKIKAKMLGTPEEAESSEDEAGPWILLSDDKGDHPPPPESKIQSFFGLWYRGKAESSEDETSSPAPSKLGGEEEAQPQSPAPDPPCSALHEHLCLGASAAPEA [RILP]”, for which the “solubility in G1/S (log2)” value in the series on HeLa Kyoto [1] is 0.551. The “solubility change mitosis (log2)” value in the series on HeLa Kyoto [2] turned out to be 0.11.
For “MEQRRVTDFFARRRPGPPRIAPPKLACRTPSPARPALRAPASATSGSRKRARPPAAPGRDQARPPARRRLRLSVDEVSSPSTPEAPDIPACPSPGQKIKKSTPAAGQPPHLTSAQDQDTISELASCLQRARELGARVRALKASAQDAGESCTPEAEGRPEEPCGEKAPAYQRFHALAQPGLPGLVLPYKYQVLAEMFRSMDTIVGMLHNRSETPTFAKVQRGVQDMMRRRFEECNVGQIKTVYPASYRFRQERSVPTFKDGTRRSDYQLTIEPLLEQEADGAAPQLTASRLLQRRQIFSQKLVEHVKEHHKAFLASLSPAMVVPEDQLTRWHPRFNVDEVPDIEPAALPQPPATEKLTTAQEVLARARNLISPRMEKALSQLALRSAAPSSPGSPRPALPATPPATPPAASPSALKGVSQDLLERIRAKEAQKQLAQMTRCPEQEQRLQRLERLPELARVLRSVFVSERKPALSMEVACARMVGSCCTIMSPGEMEKHLLLLSELLPDWLSLHRIRTDTYVKLDKAADLAHITARLAHQTRAEEGL [CDT1]”, in that order: 0.0981 and 0.575.
For “MERPSLRALLLGAAGLLLLLLPLSSSSSSDTCGPCEPASCPPLPPLGCLLGETRDACGCCPMCARGEGEPCGGGGAGRGYCAPGMECVKSRKRRKGKAGAAAGGPGVSGVCVCKSRYPVCGSDGTTYPSGCQLRAASQRAESRGEKAITQVSKGTCEQGPSIVTPPKDIWNVTGAQVYLSCEVIGIPTPVLIWNKVKRGHYGVQRTELLPGDRDNLAIQTRGGPEKHEVTGWVLVSPLSKEDAGEYECHASNSQGQASASAKITVVDALHEIPVKKGEGAEL [IGFBP7]”, in that order: 0.0794 and 0.407.
In the case of “MESETEPEPVTLLVKSPNQRHRDLELSGDRGWSVGHLKAHLSRVYPERPRPEDQRLIYSGKLLLDHQCLRDLLPKQEKRHVLHLVCNVKSPSKMPEINAKVAESTEEPAGSNRGQYPEDSSSDGLRQREVLRNLSSPGWENISRPEAAQQAFQGLGPGFSGYTPYGWLQLSWFQQIYARQYYMQYLAATAASGAFVPPPSAQEIPVVSAPAPAPIHNQFPAENQPANQNAAPQVVVNPGANQNLRMNAQGGPIVEEDDEINRDWLDWTYSAATFSVFLSILYFYSSLSRFLMVMGATVVMYLHHVGWFPFRPRPVQNFPNDGPPPDVVNQDPNNNLQEGTDPETEDPNHLPPDRDVLDGEQTSPSFMSTAWLVFKTFFASLLPEGPPAIAN [HERPUD1]”, in the series on HeLa Kyoto [1], the “solubility in G1/S (log2)” value amounted to 0.0523. The “solubility change mitosis (log2)” value with HeLa Kyoto [2] was -0.0685.
For “MESKGASSCRLLFCLLISATVFRPGLGWYTVNSAYGDTIIIPCRLDVPQNLMFGKWKYEKPDGSPVFIAFRSSTKKSVQYDDVPEYKDRLNLSENYTLSISNARISDEKRFVCMLVTEDNVFEAPTIVKVFKQPSKPEIVSKALFLETEQLKKLGDCISEDSYPDGNITWYRNGKVLHPLEGAVVIIFKKEMDPVTQLYTMTSTLEYKTTKADIQMPFTCSVTYYGPSGQKTIHSEQAVFDIYYPTEQVTIQVLPPKNAIKEGDNITLKCLGNGNPPPEEFLFYLPGQPEGIRSSNTYTLTDVRRNATGDYKCSLIDKKSMIASTAITVHYLDLSLNPSGEVTRQIGDALPVSCTISASRNATVVWMKDNIRLRSSPSFSSLHYQDAGNYVCETALQEVEGLKKRESLTLIVEGKPQIKMTKKTDPSGLSKTIICHVEGFPKPAIQWTITGSGSVINQTEESPYINGRYYSKIIISPEENVTLTCTAENQLERTVNSLNVSAISIPEHDEADEISDENREKVNDQAKLIVGIVVGLLLAALVAGVVYWLYMKKSKTASKHVNKDLGNMEENKKLEENNHKTEA [ALCAM]”, in that order: 0.38 and -0.0197.
Turning to “MESRDHNNPQEGPTSSSGRRAAVEDNHLLIKAVQNEDVDLVQQLLEGGANVNFQEEEGGWTPLHNAVQMSREDIVELLLRHGADPVLRKKNGATPFILAAIAGSVKLLKLFLSKGADVNECDFYGFTAFMEAAVYGKVKALKFLYKRGANVNLRRKTKEDQERLRKGGATALMDAAEKGHVEVLKILLDEMGADVNACDNMGRNALIHALLSSDDSDVEAITHLLLDHGADVNVRGERGKTPLILAVEKKHLGLVQRLLEQEHIEINDTDSDGKTALLLAVELKLKKIAELLCKRGASTDCGDLVMTARRNYDHSLVKVLLSHGAKEDFHPPAEDWKPQSSHWGAALKDLHRIYRPMIGKLKFFIDEKYKIADTSEGGIYLGFYEKQEVAVKTFCEGSPRAQREVSCLQSSRENSHLVTFYGSESHRGHLFVCVTLCEQTLEACLDVHRGEDVENEEDEFARNVLSSIFKAVQELHLSCGYTHQDLQPQNILIDSKKAAHLADFDKSIKWAGDPQEVKRDLEDLGRLVLYVVKKGSISFEDLKAQSNEEVVQLSPDEETKDLIHRLFHPGEHVRDCLSDLLGHPFFWTWESRYRTLRNVGNESDIKTRKSESEILRLLQPGPSEHSKSFDKWTTKINECVMKKMNKFYEKRGNFYQNTVGDLLKFIRNLGEHIDEEKHKKMKLKIGDPSLYFQKTFPDLVIYVYTKLQNTEYRKHFPQTHSPNKPQCDGAGGASGLASPGC [RNASEL]”, in the series on HeLa Kyoto [1], the “solubility in G1/S (log2)” value is -0.104. Besides, in the series with HeLa Kyoto [2], the “solubility change mitosis (log2)” value was -0.0377.
For “MESTPSRGLNRVHLQCRNLQEFLGGLSPGVLDRLYGHPATCLAVFRELPSLAKNWVMRMLFLEQPLPQAAVALWVKKEFSKAQEESTGLLSGLRIWHTQLLPGGLQGLILNPIFRQNLRIALLGGGKAWSDDTSQLGPDKHARDVPSLDKYAEERWEVVLHFMVGSPSAAVSQDLAQLLSQAGLMKSTEPGEPPCITSAGFQFLLLDTPAQLWYFMLQYLQTAQSRGMDLVEILSFLFQLSFSTLGKDYSVEGMSDSLLNFLQHLREFGLVFQRKRKSRRYYPTRLAINLSSGVSGAGGTVHQPGFIVVETNYRLYAYTESELQIALIALFSEMLYRFPNMVVAQVTRESVQQAIASGITAQQIIHFLRTRAHPVMLKQTPVLPPTITDQIRLWELERDRLRFTEGVLYNQFLSQVDFELLLAHARELGVLVFENSAKRLMVVTPAGHSDVKRFWKRQKHSS [GTF2H4]”, in that order: -0.135 and 0.00292.
For “METDESPSPLPCGPAGEAVMESRARPFQALPREQSPPPPLQTSSGAEVMDVGSGGDGQSELPAEDPFNFYGASLLSKGSFSKGRLLIDPNCSGHSPRTARHAPAVRKFSPDLKLLKDVKISVSFTESCRSKDRKVLYTGAERDVRAECGLLLSPVSGDVHACPFGGSVGDGVGIGGESADKKDEENELDQEKRVEYAVLDELEDFTDNLELDEEGAGGFTAKAIVQRDRVDEEALNFPYEDDFDNDVDALLEEGLCAPKKRRTEEKYGGDSDHPSDGETSVQPMMTKIKTVLKSRGRPPTEPLPDGWIMTFHNSGVPVYLHRESRVVTWSRPYFLGTGSIRKHDPPLSSIPCLHYKKMKDNEEREQSSDLTPSGDVSPVKPLSRSAELEFPLDEPDSMGADPGPPDEKDPLGAEAAPGALGQVKAKVEVCKDESVDLEEFRSYLEKRFDFEQVTVKKFRTWAERRQFNREMKRKQAESERPILPANQKLITLSVQDAPTKKEFVINPNGKSEVCILHEYMQRVLKVRPVYNFFECENPSEPFGASVTIDGVTYGSGTASSKKLAKNKAARATLEILIPDFVKQTSEEKPKDSEELEYFNHISIEDSRVYELTSKAGLLSPYQILHECLKRNHGMGDTSIKFEVVPGKNQKSEYVMACGKHTVRGWCKNKRVGKQLASQKILQLLHPHVKNWGSLLRMYGRESSKMVKQETSDKSVIELQQYAKKNKPNLHILSKLQEEMKRLAEEREETRKKPKMSIVASAQPGGEPLCTVDV [DGCR8]”, in that order: -0.452 and 0.0203.
For “METMRAQRLQPGVGTSGRGTLRALRPGVTGAAAATATPPAGPPPAPPPPAPPPPPLLLSGAPGLPLPPGAAGSPAVLREAVEAVVRSFAKHTQGYGRVNVVEALQEFWQMKQSRGADLKNGALVVYEMVPSNSPPYVCYVTLPGGSCFGSFQFCPTKAEARRSAAKIALMNSVFNEHPSRRITDEFIEKSVSEALASFNGNREEADNPNTGIGAFRFMLESNKGKSMLEFQELMTVFQLLHWNGSLKAMRERQCSRQEVLAHYSHRALDDDIRHQMALDWVSREQSVPGALSRELASTERELDEARLAGKELRFHKEKKDILVLAAGQLGNMHSSNC [LIX1L]”, in that order: 0.528 and -0.1.
For “MFSAGAESLLHQAREIQDEELKKFCSRICKLLQAEDLGPDTLDSLQRLFLIISATKYSRRLEKTCVDLLQATLGLPACPEQLQVLCAAILREMSPSDSLSLAWDHTQNSRQLSLVASVLLAQGDRNEEVRAVGQGVLRALESRQPEGPSLRHLLPVMAKVVVLSPGTLQEDQATLLSKRLVDWLRYASLQQGLPHSGGFFSTPRARQPGPVTEVDGAVATDFFTVLSSGHRFTDDQWLNVQAFSMLRAWLLHSGPEGPGTLDTDDRSEQEGSTLSVISATSSAGRLLPPRERLREVAFEYCQRLIEQSNRRALRKGDSDLQKACLVEAVLVLDVLCRQDPSFLYRSLSCLKALHGRVRGDPASVRVLLPLAHFFLSHGEAAAVDSEAVYQHLFTRIPVEQFHSPMLAFEFIQFCRDNLHLFSGHLSTLRLSFPNLFKFLAWNSPPLTSEFVALLPALVDAGTALEMLHALLDLPCLTAVLDLQLRSAPAASERPLWDTSLRAPSCLEAFRDPQFQGLFQYLLRPKASGATERLAPLHQLLQPMAGCARVAQCAQAVPTLLQAFFSAVTQVADGSLINQLALLLLGRSDSLYPAPGYAAGVHSVLSSQFLALCTLKPSLVVELARDLLEFLGSVNGLCSRASLVTSVVWAIGEYLSVTYDRRCTVEQINKFFEALEALLFEVTQCRPSAALPRCPPQVVTVLMTTLTKLASRSQDLIPRASLLLSKMRTLAHSPATSSTHSEEGAEAIRTRATELLTLLKMPSVAQFVLTPSTEVCSPRYHRDANTALPLALRTVSRLVEREAGLMPG [AP5Z1]”, in the series with HeLa Kyoto [1], the “solubility in G1/S (log2)” value worked out at 0.134. Besides, in the series with HeLa Kyoto [2], the “solubility change mitosis (log2)” value was -0.0926.
